According to patent US20240261333A1 (published 2024):

T1: CHCHD3 (human, UniProt Q9NX63 2-227, limits assumed)
T1 construct: also called NP_001304106.1 (+1)
T1 sequence (looked up): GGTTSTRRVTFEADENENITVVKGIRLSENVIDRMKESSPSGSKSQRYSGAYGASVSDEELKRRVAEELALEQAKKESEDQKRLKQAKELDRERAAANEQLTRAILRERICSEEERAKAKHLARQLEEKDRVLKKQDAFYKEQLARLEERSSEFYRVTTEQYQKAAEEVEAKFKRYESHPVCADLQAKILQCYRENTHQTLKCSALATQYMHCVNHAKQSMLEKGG

T2: SBSN (human, UniProt Q6UWP8 26-590)
T2 construct: also called NP_00159506.1 (+2)
T2 sequence (looked up): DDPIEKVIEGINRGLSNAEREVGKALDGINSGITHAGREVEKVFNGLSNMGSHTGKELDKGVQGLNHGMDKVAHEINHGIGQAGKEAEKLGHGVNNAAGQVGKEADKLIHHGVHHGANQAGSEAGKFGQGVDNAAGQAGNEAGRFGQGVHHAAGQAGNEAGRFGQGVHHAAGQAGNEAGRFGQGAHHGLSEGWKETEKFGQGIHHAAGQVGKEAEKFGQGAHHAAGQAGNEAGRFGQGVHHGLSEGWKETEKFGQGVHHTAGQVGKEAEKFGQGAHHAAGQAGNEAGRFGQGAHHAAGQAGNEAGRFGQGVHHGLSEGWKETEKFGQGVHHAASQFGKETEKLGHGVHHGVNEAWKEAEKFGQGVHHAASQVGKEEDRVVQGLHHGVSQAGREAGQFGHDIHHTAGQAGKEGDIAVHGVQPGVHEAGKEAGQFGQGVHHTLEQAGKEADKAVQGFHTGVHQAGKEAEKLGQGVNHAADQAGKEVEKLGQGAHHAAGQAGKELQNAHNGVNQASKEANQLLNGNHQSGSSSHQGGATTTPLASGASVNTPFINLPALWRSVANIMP


Key:
Assay in all cases: co-IP with anti-FLAG, C-FLAG B3GNT2, mass spectrometry
[1] = biological target: T1, CHCHD3
[2] = biological target: T3, FLG (human, UniProt P20930 1-4061, limits assumed)
T3 construct: also called NP_002007.1
T3 sequence (P20930 whole entry): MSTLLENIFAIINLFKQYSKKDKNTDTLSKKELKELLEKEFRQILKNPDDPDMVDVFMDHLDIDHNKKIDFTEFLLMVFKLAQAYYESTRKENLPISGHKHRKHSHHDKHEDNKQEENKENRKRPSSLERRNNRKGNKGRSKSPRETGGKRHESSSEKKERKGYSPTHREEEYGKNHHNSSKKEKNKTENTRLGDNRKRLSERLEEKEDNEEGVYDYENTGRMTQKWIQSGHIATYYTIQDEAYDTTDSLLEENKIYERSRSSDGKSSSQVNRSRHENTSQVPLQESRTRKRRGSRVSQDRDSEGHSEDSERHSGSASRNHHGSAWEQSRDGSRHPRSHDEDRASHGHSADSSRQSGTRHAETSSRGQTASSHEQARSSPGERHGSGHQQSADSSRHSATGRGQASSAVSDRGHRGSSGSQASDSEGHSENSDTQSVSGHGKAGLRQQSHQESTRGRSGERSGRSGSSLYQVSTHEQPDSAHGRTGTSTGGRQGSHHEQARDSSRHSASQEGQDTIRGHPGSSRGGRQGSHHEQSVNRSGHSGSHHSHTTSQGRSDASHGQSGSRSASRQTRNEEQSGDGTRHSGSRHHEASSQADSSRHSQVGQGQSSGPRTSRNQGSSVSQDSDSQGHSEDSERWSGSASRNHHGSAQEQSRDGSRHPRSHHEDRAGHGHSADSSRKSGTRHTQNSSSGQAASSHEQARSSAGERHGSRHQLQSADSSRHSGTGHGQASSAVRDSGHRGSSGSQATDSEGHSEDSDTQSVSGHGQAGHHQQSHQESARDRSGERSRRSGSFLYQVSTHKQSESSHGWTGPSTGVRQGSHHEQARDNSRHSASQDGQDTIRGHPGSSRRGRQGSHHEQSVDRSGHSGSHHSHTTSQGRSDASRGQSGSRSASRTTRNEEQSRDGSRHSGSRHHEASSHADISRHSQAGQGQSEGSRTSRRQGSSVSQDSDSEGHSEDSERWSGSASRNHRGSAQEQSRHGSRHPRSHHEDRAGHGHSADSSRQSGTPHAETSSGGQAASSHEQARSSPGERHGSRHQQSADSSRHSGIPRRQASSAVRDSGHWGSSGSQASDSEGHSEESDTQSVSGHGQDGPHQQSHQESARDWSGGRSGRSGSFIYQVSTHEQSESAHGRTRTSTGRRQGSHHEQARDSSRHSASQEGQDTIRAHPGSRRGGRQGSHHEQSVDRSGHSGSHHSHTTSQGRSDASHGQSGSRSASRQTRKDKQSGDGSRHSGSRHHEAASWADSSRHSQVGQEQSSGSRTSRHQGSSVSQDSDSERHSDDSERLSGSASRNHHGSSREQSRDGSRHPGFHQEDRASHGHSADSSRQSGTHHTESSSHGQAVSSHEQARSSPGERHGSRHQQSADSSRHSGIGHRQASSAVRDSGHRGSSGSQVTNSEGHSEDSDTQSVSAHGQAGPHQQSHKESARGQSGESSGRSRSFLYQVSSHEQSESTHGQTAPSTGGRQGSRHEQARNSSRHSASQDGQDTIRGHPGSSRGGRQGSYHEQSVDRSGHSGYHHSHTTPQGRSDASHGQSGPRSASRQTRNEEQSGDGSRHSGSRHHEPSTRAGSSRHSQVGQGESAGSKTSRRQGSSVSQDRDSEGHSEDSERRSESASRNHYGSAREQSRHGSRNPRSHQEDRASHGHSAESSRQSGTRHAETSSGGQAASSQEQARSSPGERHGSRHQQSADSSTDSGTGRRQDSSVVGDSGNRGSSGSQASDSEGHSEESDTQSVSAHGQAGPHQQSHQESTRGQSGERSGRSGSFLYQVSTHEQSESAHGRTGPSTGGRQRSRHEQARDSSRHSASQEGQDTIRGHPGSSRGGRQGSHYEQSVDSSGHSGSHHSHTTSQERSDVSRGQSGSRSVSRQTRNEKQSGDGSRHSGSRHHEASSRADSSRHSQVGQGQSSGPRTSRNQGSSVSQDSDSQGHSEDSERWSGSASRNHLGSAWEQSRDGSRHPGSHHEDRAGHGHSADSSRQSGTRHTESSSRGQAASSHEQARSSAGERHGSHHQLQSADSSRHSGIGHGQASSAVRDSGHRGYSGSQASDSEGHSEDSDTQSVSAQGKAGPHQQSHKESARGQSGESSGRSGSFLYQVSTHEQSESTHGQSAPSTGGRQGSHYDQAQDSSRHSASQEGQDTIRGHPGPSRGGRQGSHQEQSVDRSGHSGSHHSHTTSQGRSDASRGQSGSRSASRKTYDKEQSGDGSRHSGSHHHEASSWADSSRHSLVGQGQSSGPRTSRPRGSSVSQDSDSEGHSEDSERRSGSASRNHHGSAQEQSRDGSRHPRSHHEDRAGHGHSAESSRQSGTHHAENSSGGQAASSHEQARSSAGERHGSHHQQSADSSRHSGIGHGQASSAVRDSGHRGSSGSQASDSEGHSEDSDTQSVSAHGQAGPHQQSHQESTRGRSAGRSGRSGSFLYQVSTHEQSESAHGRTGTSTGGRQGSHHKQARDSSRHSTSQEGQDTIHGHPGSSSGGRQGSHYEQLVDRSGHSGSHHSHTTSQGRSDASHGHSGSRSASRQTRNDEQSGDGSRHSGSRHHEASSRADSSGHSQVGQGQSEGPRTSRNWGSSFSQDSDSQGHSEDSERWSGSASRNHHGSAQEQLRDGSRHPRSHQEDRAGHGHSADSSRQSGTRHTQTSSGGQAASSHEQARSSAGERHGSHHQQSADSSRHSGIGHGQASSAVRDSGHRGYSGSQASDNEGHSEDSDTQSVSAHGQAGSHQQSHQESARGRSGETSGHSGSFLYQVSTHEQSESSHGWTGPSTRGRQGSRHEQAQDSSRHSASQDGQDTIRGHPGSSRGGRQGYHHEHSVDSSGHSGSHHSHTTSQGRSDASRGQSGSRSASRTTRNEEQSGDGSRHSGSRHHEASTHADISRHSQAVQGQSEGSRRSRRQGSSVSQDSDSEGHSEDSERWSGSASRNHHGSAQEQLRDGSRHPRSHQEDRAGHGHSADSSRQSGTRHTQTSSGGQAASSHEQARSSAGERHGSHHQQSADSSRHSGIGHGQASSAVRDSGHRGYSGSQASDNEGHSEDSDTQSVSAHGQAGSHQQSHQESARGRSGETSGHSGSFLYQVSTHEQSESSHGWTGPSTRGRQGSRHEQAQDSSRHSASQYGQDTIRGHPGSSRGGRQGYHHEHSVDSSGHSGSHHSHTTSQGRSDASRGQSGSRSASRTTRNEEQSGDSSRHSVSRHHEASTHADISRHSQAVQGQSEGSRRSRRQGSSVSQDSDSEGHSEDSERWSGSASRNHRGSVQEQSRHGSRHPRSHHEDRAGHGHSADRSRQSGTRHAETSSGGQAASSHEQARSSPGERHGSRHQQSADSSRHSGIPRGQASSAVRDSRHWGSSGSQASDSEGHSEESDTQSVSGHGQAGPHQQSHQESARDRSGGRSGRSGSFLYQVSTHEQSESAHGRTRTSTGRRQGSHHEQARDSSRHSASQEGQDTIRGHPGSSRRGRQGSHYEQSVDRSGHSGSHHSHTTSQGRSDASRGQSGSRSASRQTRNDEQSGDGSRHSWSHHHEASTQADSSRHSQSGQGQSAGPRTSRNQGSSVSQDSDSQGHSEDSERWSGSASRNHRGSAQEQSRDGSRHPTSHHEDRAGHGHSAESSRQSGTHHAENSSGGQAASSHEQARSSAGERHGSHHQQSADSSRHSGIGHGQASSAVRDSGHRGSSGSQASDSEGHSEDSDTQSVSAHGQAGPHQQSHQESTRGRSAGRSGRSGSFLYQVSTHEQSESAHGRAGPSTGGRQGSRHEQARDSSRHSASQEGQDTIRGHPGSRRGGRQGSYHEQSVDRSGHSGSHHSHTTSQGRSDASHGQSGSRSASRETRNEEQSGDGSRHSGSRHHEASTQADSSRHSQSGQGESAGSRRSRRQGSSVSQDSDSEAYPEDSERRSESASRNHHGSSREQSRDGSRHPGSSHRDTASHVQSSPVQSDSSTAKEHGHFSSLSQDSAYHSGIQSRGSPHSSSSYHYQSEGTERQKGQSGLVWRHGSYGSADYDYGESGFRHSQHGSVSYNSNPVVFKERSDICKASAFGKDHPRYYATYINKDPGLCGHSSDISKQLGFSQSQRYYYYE

[3] = biological target: RPL23 (human, UniProt P62829 1-140)
[4] = biological target: T4, PKM (human, UniProt P14618 2-531, limits assumed)
T4 construct: also called NP_001193725.1 (+3)

[5] = biological target: RPS14 (human, UniProt P62263 2-151)
[6] = biological target: T5, DDX3X (human, UniProt O00571 2-662)
T5 construct: also called NP_001180345.1 (+1)
T5 sequence (O00571 2-662 limits assumed): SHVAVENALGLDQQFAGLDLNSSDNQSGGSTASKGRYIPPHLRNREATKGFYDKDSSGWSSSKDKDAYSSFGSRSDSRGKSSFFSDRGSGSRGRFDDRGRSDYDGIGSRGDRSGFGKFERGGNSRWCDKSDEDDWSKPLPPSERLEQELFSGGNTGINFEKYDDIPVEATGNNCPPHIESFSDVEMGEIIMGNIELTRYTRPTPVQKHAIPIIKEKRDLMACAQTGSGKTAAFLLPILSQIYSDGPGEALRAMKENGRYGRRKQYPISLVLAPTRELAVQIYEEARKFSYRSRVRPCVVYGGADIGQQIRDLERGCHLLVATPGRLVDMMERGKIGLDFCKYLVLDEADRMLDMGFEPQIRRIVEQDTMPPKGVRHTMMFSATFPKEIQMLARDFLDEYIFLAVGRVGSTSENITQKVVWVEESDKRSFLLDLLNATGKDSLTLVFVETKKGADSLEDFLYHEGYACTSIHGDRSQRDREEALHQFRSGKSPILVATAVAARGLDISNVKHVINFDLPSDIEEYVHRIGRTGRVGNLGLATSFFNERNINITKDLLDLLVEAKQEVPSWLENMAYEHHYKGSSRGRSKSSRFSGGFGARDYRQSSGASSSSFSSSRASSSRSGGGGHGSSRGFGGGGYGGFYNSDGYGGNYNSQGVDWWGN

[7] = biological target: T6, DDX17 (human, UniProt Q92841 1-729, limits assumed)
T6 construct: also called NP_001091974.1

[8] = biological target: T2, SBSN

co-IP mass spectrometry count [1] | co-IP mass spectrometry count [2] | co-IP mass spectrometry count [3] | co-IP mass spectrometry count [4] | co-IP mass spectrometry count [5] | Binder | co-IP/MS count, C-term flag [6] | co-IP/MS count, C-term flag [7] | co-IP/MS count, C-term flag [8]
15 | 22 | 6 | 3 | 18 | C-terminal FLAG tagged B3GNT2 (enzyme, human, UniProt Q9NY97 1-397, looked up, FLAG-tagged ORF overexpressed in cells; pulled down from lysate with mouse anti-FLAG; also called C-FLAG B3GNT2; C-term flag; not shown: C-terminal FLAG tag) MSVGRRRIKLLGILMMANVFIYFIMEVSKSSSQEKNGKGEVIIPKEKFWKISTPPEAYWNREQEKLNRQYNPILSMLTNQTGEAGRLSNISHLNYCEPDLRVTSVVTGFNNLPDRFKDFLLYLRCRNYSLLIDQPDKCAKKPFLLLAIKSLTPHFARRQAIRESWGQESNAGNQTVVRVFLLGQTPPEDNHPDLSDMLKFESEKHQDILMWNYRDTFFNLSLKEVLFLRWVSTSCPDTEFVFKGDDDVFVNTHHILNYLNSLSKTKAKDLFIGDVIHNAGPHRDKKLKYYIPEVVYSGLYPPYAGGGGFLYSGHLALRLYHITDQVHLYPIDDVYTGMCLQKLGLVPEKHKGFRTFDIEEKNKNNICSYVDLMLVHSRKPQEMIDIWSQLQSAHLKC |  |  | 
 |  |  |  |  | C-terminal FLAG tagged B3GNT2 (enzyme, human, UniProt Q9NY97 1-397, looked up, FLAG-tagged ORF overexpressed in A375 cells; pulled down from the lysate with mouse anti-FLAG; also called C-FLAG B3GNT2; C-term flag; not shown: C-terminal FLAG tag) MSVGRRRIKLLGILMMANVFIYFIMEVSKSSSQEKNGKGEVIIPKEKFWKISTPPEAYWNREQEKLNRQYNPILSMLTNQTGEAGRLSNISHLNYCEPDLRVTSVVTGFNNLPDRFKDFLLYLRCRNYSLLIDQPDKCAKKPFLLLAIKSLTPHFARRQAIRESWGQESNAGNQTVVRVFLLGQTPPEDNHPDLSDMLKFESEKHQDILMWNYRDTFFNLSLKEVLFLRWVSTSCPDTEFVFKGDDDVFVNTHHILNYLNSLSKTKAKDLFIGDVIHNAGPHRDKKLKYYIPEVVYSGLYPPYAGGGGFLYSGHLALRLYHITDQVHLYPIDDVYTGMCLQKLGLVPEKHKGFRTFDIEEKNKNNICSYVDLMLVHSRKPQEMIDIWSQLQSAHLKC | 23 | 30 | 25
